Data from patent US20190062420A1 (Janssen / Centocor, published 2019).
Read-outs that look alike come from different tables or passages of the source.

T1: human FcγRIIB (NM_004001) expressed on cells (human, UniProt P31994 43-310)
T1 construct: Transiently expressed on Expi293F cells; also called Expi293F FcγRIIB; HEK293F cells expressing FcγRIIB
T1 sequence: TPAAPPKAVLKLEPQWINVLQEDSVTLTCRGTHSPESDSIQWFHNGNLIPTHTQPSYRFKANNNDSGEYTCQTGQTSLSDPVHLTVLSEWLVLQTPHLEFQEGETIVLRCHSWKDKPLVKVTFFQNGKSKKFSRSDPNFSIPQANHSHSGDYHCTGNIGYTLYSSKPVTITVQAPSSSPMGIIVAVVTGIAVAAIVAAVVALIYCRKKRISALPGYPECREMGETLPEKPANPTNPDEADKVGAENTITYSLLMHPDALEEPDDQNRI

T2: FcγRIIB protein (human, UniProt P31994 43-217, biotinylated (SureLINK Biotin Kit) in the ELISA of Example 1)
T2 construct: Soluble/recombinant antigen used in ELISA; also called bt-FcγRIIB; recombinant FcγRIIB protein
T2 sequence: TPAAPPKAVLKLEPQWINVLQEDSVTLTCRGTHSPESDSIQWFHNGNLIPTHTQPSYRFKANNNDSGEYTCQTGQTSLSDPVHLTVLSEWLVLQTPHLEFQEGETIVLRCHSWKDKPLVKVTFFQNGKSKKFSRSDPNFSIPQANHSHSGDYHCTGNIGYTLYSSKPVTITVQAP


How the values were obtained:
[1] = target: T1, human FcγRIIB (NM_004001) expressed on …; assay: flow cytometry; Raji cells (express predominantly FcγRIIB)
Protocol: (§1) 2×10⁵ cells per well were seeded in 96-well plate and blocked in BSA Stain Buffer (BD Biosciences, San Jose, USA) for 30 min at 4° C. Cells were incubated with test mAbtyrin on ice for 1.5 h at 4° C. After being washed twice with BSA stain buffer, the cells were incubated with R-PE labeled anti-human or anti-mouse IgG secondary antibody (Jackson Immunoresearch Laboratories) for 45 min at 4° C. The cells were washed twice in stain buffer and then resuspended in 150 μL of Stain Buffer containing 1:200 diluted DRAQ7 live/dead stain (Cell Signaling Technology, Danvers, USA). PE and DRAQ7 signals of the stained cells were detected by Miltenyi MACSQuant flow cytometer (Miltenyi Biotec, Auburn, USA) using B2 and B4 channel respectively. Live cells were gated on DRAQ7 exclusion and the geometric mean fluorescence signals were determined for at least 10,000 live events collected. FlowJo software (Tree Star) was used for analysis. Data was plotted as the logarithm of antibody concentration versus mean fluorescence signals. Nonlinear regression analysis was performed by GraphPad Prism 6 (GraphPad Software, Inc.) and EC₅₀ values were calculated.
(§2) Raji cell is a cell line derived from B cells that express predominantly FcγRIIB. The binding of mAbtyrins on Raji cells were investigated by flow cytometry assay described for testing mAbtyrin binding to FcγR. Binding of the mAbtyrins were detected by flow cytometry using a PE-labeled Goat F(ab′) against Human IgG(γ).

[2] = target: T3, human FcγRIIIA (NM_000569) expressed on cells (human, UniProt P08637 17-254); assay: flow cytometry; Expi293F cells transfected with FcγRIIIA
T3 construct: Transiently expressed on Expi293F cells; also used here for FcγRIIIA on the engineered effector cells of the ADCC reporter bioassay (Promega); also called FcγIIIA
Protocol: (§3) Plasmids expressing cDNAs encoding human FcγRI (NM_000566) (SEQ ID NO: 44), FcγRIIA (NM_021642) (SEQ ID NO: 2), FcγRIIB (NM_004001) (SEQ ID NO: 3), and FcγRIIIA (NM_000569) (SEQ ID NO: 45) (Origene) were transiently transfected into Expi293F cells by ExpiFectamine293 transfection kit (Life Technologies). Flow cytometry assays were performed 48 h after transfection.
as §1

[3] = target: T4, human FcγRI (NM_000566) expressed on cells (human, UniProt P12314 16-374); assay: flow cytometry; Expi293F cells transfected with FcγRI
T4 construct: Transiently expressed on Expi293F cells
Protocol: as §3, §1

[4] = target: T1, human FcγRIIB (NM_004001) expressed on …; assay: flow cytometry; Raji cells (express predominantly FcγRIIB); remark: listed apart in the source
Protocol: as §1, §2

[5] = target: T1, human FcγRIIB (NM_004001) expressed on …; assay: cell-based or functional assay
[6] = target: T1, human FcγRIIB (NM_004001) expressed on …; assay: cell-based or functional assay; remark: listed apart in the source
FcγRIIB protein = target: T2, FcγRIIB protein; assay: ELISA; FcγRIIB protein coated on plate, anti-human IgG-HRP detection
Protocol: Effect of the mAbtyrins on T cell activation was evaluated. Briefly, recombinant FcγRIIB or FcγRIIA protein was coated on the plate to provide the crosslinking activity. For T cell activation assay, 100 μL of 30 ng/mL anti-CD3 antibody (OKT3) and 1 μg/mL FcγRIIB or FcγRIIA protein in DPBS were coated in U-bottomed 96-well tissue culture plate overnight. CD4 positive T cells were isolated from PBMC by negative selection. OX40 expression was induced by culturing the isolated T cells in the presence of 1 μg/mL PHA overnight. On the assay day, the coating solution in the plate were aspirated and 150 μL RPMI media was added to block the plate. The cultured T cells were washed three times by RPMI culture media and between 25,000 to 50,000 CD4 positive T cells were seeded in each well in the assay plate. Test mAbtyrins were added to the cells and the plate was incubated for 3 days. T cell activation was assessed by the induction of IFNγ or TNFα production, which was quantitated by human IFNγ or TNFα ELISA detection kit (Biolegend). Prior to T cell activation assay, the binding affinity of mAbtyrins to immobilized FcγRIIB or FcγRIIA protein were evaluated by an ELISA assay. […] The binding of mAbtyrins to immobilized FcγRIIB or FcγRIIA protein were detected by HRP-conjugated anti-Human IgG(γ) secondary antibody and quantitated by ELISA assay using TMB substrate.

T3 sequence (P08637 17-254 limits assumed): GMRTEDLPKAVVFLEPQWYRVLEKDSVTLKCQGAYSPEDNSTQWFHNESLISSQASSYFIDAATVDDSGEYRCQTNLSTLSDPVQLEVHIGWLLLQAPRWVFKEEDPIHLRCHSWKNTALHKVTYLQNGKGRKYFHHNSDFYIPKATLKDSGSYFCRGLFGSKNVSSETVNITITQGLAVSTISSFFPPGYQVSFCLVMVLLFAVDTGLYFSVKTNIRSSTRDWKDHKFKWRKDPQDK
T4 sequence (P12314 16-374 limits assumed): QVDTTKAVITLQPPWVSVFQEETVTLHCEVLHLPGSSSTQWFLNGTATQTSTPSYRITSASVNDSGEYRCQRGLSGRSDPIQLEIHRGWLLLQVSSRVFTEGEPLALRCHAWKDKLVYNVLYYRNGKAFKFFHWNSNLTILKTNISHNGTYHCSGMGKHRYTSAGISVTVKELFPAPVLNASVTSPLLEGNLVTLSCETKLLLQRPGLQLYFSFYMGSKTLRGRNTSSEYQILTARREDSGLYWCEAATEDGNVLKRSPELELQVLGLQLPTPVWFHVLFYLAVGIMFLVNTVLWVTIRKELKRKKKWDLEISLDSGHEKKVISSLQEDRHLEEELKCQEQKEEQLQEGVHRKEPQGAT

| Binding to Raji cells mean signals at 10 µg/ml [1] [mean fluorescence signal] | EC50 [1] [µg/mL] | EC50 [2] [µg/mL] | EC50 [3] [µg/mL] | EC50 [4] [µg/mL] | fold of agonism enhancement upon crosslinking (Daudi cells) [5] [fold] | % activity at 1 µg/ml with Raji cells (HEK-Blue: OX40 NF-κB reporter, relative to 1 µg/ml OX40 ligand) [6] [%] | fold of agonism enhancement upon crosslinking (Raji cells) [6] [fold] | binding result (FcγRIIB protein) | Binder |
| --- | --- | --- | --- | --- | --- | --- | --- | --- | --- |
| 11900 | 1.44 | > 10 | > 10 | 1.44 | 45 | 86 | 15 |  | OX40SF2IgG2sigma_R2BS29_HC-C (bispecific antibody, mAbtyrin: anti-OX40 antibody OX40SF2, effector silent IgG2sigma, with linker and R2BS29 FN3 domain at the C-terminus of the heavy chain; also called mAbtyrin) heavy: QVQLVQSGAEVKKPGSSVKVSCKASGYTFKDYTMHWVRQAPGQGLEWIGGIYPNNGGSTYNQNFKDRVTLTADKSTSTAYMELSSLRSEDTAVYYCARMGYHGPHLDFDVWGQGTTVTVSSASTKGPSVFPLAPCSRSTSESTAALGCLVKDYFPEPVTVSWNSGALTSGVHTFPAVLQSSGLYSLSSVVTVPSSNFGTQTYTCNVDHKPSNTKVDKTVERKCCVECPPCPAPPAAASSVFLFPPKPKDTLMISRTPEVTCVVVDVSAEDPEVQFNWYVDGVEVHNAKTKPREEQFNSTFRVVSVLTVLHQDWLNGKEYKCKVSNKGLPSSIEKTISKTKGQPREPQVYTLPPSREEMTKNQVSLTCLVKGFYPSDIAVEWESNGQPENNYKTTPPMLDSDGSFFLYSKLTVDKSRWQQGNVFSCSVMHEALHNHYTQKSLSLSPGKGGGGGSGGGGSGGGGSGGGGSLPAPKNLVVSRVTEDSARLSWTAPDAAFDSFPIYYWEYRVGGEAIVLTVPGSERSYDLTGLKPGTEYFVYINGVKGGEESRPLSAIFTT light: DIQMTQSPSSLSASVGDRVTITCKASQDVGAAVAWYQQKPGKAPKLLIYWASTRHTGVPSRFSGSGSGTDFTLTISSLQPEDFATYYCQQYINYPLTFGGGTKVEIKRTVAAPSVFIFPPSDEQLKSGTASVVCLLNNFYPREAKVQWKVDNALQSGNSQESVTEQDSKDSTYSLSSTLTLSKADYEKHKVYACEVTHQGLSSPVTKSFNRGEC |
|  |  | 0.339 | 0.494 |  |  |  |  | no binding | OX40SF2IgG1 (antibody, Anti-OX40 antibody, wild-type IgG1; control without FN3 domain) heavy: not shown light: DIQMTQSPSSLSASVGDRVTITCKASQDVGAAVAWYQQKPGKAPKLLIYWASTRHTGVPSRFSGSGSGTDFTLTISSLQPEDFATYYCQQYINYPLTFGGGTKVEIKRTVAAPSVFIFPPSDEQLKSGTASVVCLLNNFYPREAKVQWKVDNALQSGNSQESVTEQDSKDSTYSLSSTLTLSKADYEKHKVYACEVTHQGLSSPVTKSFNRGEC |
| 330 | > 10 |  |  | > 10 | 1 | 2.2 | 1 | no binding | OX40SF2IgG2sigma (antibody, Anti-OX40 antibody, IgG2 sigma isotype (effector silent Fc: V234A, G237A, P238S, H268A, V309L, A330S, P331S against wild type IgG2); control without FN3 domain; also called parental antibody; parental OX40 antibody) heavy: QVQLVQSGAEVKKPGSSVKVSCKASGYTFKDYTMHWVRQAPGQGLEWIGGIYPNNGGSTYNQNFKDRVTLTADKSTSTAYMELSSLRSEDTAVYYCARMGYHGPHLDFDVWGQGTTVTVSSASTKGPSVFPLAPCSRSTSESTAALGCLVKDYFPEPVTVSWNSGALTSGVHTFPAVLQSSGLYSLSSVVTVPSSNFGTQTYTCNVDHKPSNTKVDKTVERKCCVECPPCPAPPAAASSVFLFPPKPKDTLMISRTPEVTCVVVDVSAEDPEVQFNWYVDGVEVHNAKTKPREEQFNSTFRVVSVLTVLHQDWLNGKEYKCKVSNKGLPSSIEKTISKTKGQPREPQVYTLPPSREEMTKNQVSLTCLVKGFYPSDIAVEWESNGQPENNYKTTPPMLDSDGSFFLYSKLTVDKSRWQQGNVFSCSVMHEALHNHYTQKSLSLSPGK light: DIQMTQSPSSLSASVGDRVTITCKASQDVGAAVAWYQQKPGKAPKLLIYWASTRHTGVPSRFSGSGSGTDFTLTISSLQPEDFATYYCQQYINYPLTFGGGTKVEIKRTVAAPSVFIFPPSDEQLKSGTASVVCLLNNFYPREAKVQWKVDNALQSGNSQESVTEQDSKDSTYSLSSTLTLSKADYEKHKVYACEVTHQGLSSPVTKSFNRGEC |
